Data reported in patent US20250057968A1, “ANTI-DLL3 ANTIBODY AND PHARMACEUTICAL USE THEREOF, AND ANTIBODY-DRUG CONJUGATE CONTAINING ANTI-DLL3 ANTIBODY” (Jiangsu Hengrui Pharmaceuticals Co., Ltd., priority 2021, published 2025).

T1: Human DLL3 full-length protein on cells (human, UniProt Q9NYJ7 27-618)
T1 construct: H1184 and DMS53 express DLL3 themselves; The cell line is named under assay; also called H1184 cells; DLL3/H82
T1 sequence: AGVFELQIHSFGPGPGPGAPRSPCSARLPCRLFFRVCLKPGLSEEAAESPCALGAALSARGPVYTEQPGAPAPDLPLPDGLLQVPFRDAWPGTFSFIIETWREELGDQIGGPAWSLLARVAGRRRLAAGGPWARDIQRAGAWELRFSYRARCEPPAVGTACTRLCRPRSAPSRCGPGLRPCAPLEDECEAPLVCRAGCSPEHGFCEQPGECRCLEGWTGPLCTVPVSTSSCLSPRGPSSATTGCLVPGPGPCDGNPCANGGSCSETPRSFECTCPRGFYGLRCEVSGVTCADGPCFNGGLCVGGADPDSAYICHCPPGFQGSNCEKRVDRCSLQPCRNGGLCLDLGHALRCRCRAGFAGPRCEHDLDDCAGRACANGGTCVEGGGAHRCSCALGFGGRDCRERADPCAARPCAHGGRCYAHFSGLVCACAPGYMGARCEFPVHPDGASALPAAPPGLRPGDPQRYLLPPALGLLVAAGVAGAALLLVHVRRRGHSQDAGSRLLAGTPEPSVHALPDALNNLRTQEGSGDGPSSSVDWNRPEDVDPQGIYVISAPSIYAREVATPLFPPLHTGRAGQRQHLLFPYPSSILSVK

B1: hAb6L4H6 (antibody, human IgG1, kappa, V domains shown)
VH: EVQLVQSGSELKKPGASVKVSCKASGYTFTDYYMNWVRQAPGQGLEWMGIINPYSGVTIYNHKFKGRFVLSVDKSSNTAYLQISSLKAEDTAVYYCARQDSLLDYAMDYWGQGTTVTVSS
VL: DIQMTQSPSSLSASVGDRVTITCHASQGISGNMGWLQQKPGKAPKGLIYHGANLEDGVPSRFSGSGSGADYTLTISSLQPEDFADYYCVQYAQFPYTFGGGTKVEIKR
B2: M6CHI (antibody, human IgG1, kappa, V domains shown)
VH: EVQLQQSGPVLVKPGASVKMSCKASGYTFTDYYMNWVKQSHGKSLEWIGIINPYSGVTIYNHKFKGKATLTVDKSSNTAYMELNSLTSEDSAVYYCARQDSLLDYAMDYWGQGTSVTVSS
VL: DILMTQSPSSMSVSLGDTVSITCHASQGISGNMGWLQQKPGKSFKGLIYHGANLEDGVPSRFSGSGSGADYSLTISSLESEDFADYYCVQYAQFPYTFGGGTKLEIKR
notes: murine variable regions on human IgG1 / kappa constant regions; also called chimeric antibody of mAb6
B3: ADC-2 (antibody, human IgG1, kappa, V domains shown)
VH: EVQLVESGGGLVKPGGSLRLSCAASGFTFSDSGMHWIRQAPGKGLEWVSYISSGSSTIHYADTVKGRFTISRDNAKNSLYLQMNSLRAEDTAVYYCASPLYYYGRSYNAVAYWGQGTTVTVSS
VL: DIQMTQSPSSLSASVGDRVTITCHASQNINVWLSWYQQKPGKVPKLLIYKASDLHTGVPSRFSGSGSGTDFTLTISSLQPEDVATYYCQQGQSYPLTFGGGTKVEIKR
modifications: linker-drug L-9 conjugated after TCEP reduction; sites not stated; linker-drug L-9 (ecteinascidin derivative) conjugated after TCEP reduction; sites not stated; DAR n=3.72-4.88 for the whole antibody

Legend:
[1] = target: T1, Human DLL3 full-length protein on cells; experiment: FACS on H1184 cells
Method: Cells of the DLL3-expressing small cell lung cancer cell lines H1184 (ATCC, Cat. No. CRL-5858), DLL3/H82, cynoDLL3/CHO-s, and RatDLL3/CHO-s were suspended at 1×10^6/mL in FACS buffer (1% BSA+pH 7.4 PBS), and the cell suspensions were added to a 96-well round-bottom plate (Corning, 3795) at 100 μL/well. The plate was centrifuged at 300 g for 5 min, and the supernatant was removed. Different concentrations of test antibodies were added at 100 μL/well. The plate was incubated in the dark in a refrigerator at 4° C. for 1 h. After 3 washes by centrifugation at 300 g, working concentrations of APC anti-human IgG Fc (BioLegend, 410712) or PE F(ab′)2-goat anti-human IgG (invitrogen, H10104) were added. The plate was incubated in the dark in a refrigerator at 4° C. for 40 min. After 3 washes by centrifugation at 300 g, the geometric mean fluorescence intensity was measured on an Invitrogen flow cytometer, and the EC50 values of the antibodies in binding to DLL3-expressing cells were calculated.

[2] = target: T1, Human DLL3 full-length protein on cells; experiment: cell-based or functional assay

Binder | EC50 [1] | Emax [1] | IC50 (nM), killing of DMS53 (+) cells [2] | IC50 (nM), killing of H1184 (+++) cells [2]
B1 | 0.17 nM | 2000 | – | –
B2 | 0.14 nM | 3370 | – | –
B3 | – | – | 13.1 nM | 0.11 nM
